# Assay: label from the status in PepcDB records
row,Sequence,protein production
1,MVPDYFSASEWTIIADVLGANSRHLFELYALKQSNHYQSLMGSKAGTFEDIVDAYLAYLQVAVVNPAMDKALLRLQRYATDVRKGSIPYEKLRFGASWRHPPQTEDPTQNSEWAKIQLMDFVQALVNTEFAVGILYTQRDPSFFRPISQGIKRCLVRWNVDEISVSCARTHVGLRFYREVENIKGRCFCCRQGLTFSKITLRRDVGGKNLQLQNGVIVTTDRSSLQRLKQKPDLIYGIWERPHGFNLRSVQENNEHNN,failed
2,MVPIPNGVSAKETHKLMGRGIAAFALLLLLQVSGSIVTQSGLAAPWWNAMFLWLLLTGIGCFSVASIRGRGLRWTSSILSLLVLAGLLLWPAAVPTTVPVDIGTPWLWAMINVGAAWSAFAFGTLPGCVYTVVIGSVFAVVRTLPQSGSASPSTAIQDASFSTVLGIIICLTIGILRQASERVDTAAENAINRYREAAAETALSNERTRVDGLLHDSVMSALLTASRSGSSLERLSSAELARSALARLGEHEIKQTDATTVSVSELASRIRFTVQDDGDTPTVTVTGEGSTSLLLSGQVVRALFEASTEAVANAVRHSNATRCEVRVLGQDPKGIARVVVSVKDNGDGFRQELVSDRRLGIKVSIIGRMRTIGGTADISSHPGKGTEVILTWAGEA,failed
3,MVQDQIRYDILVQDALRGVIRKVLSEVAKAGLPGSHHFFITFLTNAPGVKISTRLKSRYPEQMTIVLQHQFRDLNVSETAFEVTLSFREVSEKLVIPFHSIQVFYDPVAAFEAAFDLPSNLNSKEGENLENIASTPVILSDTQKKEKKFPKEQISKTNKDSSNNDTKQSADVVSLDSFRKKLEHHHHHH,not failed
4,MVQEEKAMEAINDALRALRKRHLLEEGAHAPAISALSKPLISQGSEWKEKTEKLETELQQCYKAQSRLSEQLVIEVAESRTSKAILQEKELLINDLQKELTQRREDCTRLQEELEEKTKTVDVLIAENLEIRSQLEEMTSRVQKAETENKMLIDRWMLQKMQDAERLNEANDLYEEMLAKLKANGLETLARQQVDGIVRRNEDGTDHFVESTIPSTCANRIHAHEGGCGSIVFEYNSGTLFTGGQDRAVKMWDTNSGTLIKSLYGSLGNILDMAVTHDNKSVIAATSSNNLFVWDVSSGRVRHTLTGHTDKVCAVDVSKFSSRHVVSAAYDRTIKLWDLHKGYCTNTVLFTSNCNAICLSIDGLTVFSGHMDGNLRLWDIQTGKLLSEVAGHSSAVTSVSLSRNGNRILTSGRDNVHNVFDTRTLEICGTLRASGNRLASNWSRSCISPDDDYVAAGSADGSVHVWSLSKGNIVSILKEQTSPILCCSWSGIGKPLASADKNGYVCTWT,failed
5,MVQLDQRVRFKSATSIISIEMWERFSFYGMQALLVYYLYFDVAAGGLGLDQTQATGLVGVYGALLYLCCWAGGWVSDRVLGAEKTLLGGAISVTIGHLVLAGLGGKIGLAIGLGCIAIGSGFVKTAAITVLGSRHGEQEGDAKADPAFQLFYLGINVGALLGPLLTGWLSSRYSFEMGFGAAAVLMIGGLGIYAALRKPMLQSFPLEVKKALLRAQNPAEKHVISTAFAAVAVLCGVLLYLLLTETVSADQLAGALLLVTIGAALWLIIQPLRHPQVSSEEKRKVLAFIPIFVCSTAFWAVQAQTYGVLAVYSQERVDRMVGDFEIPAAWSQSLNPFFILALSIPISLWFMRGSRAPRVKIGISIGVIIAGSGLLVLIPFVGMPLAPVWVLPLSVFLISLGELFIGPGGMAATAHHAPRIFATRFSALYFLTLAIGMSIAGNVSKFYDPTNHTSELRYFAVFGISIIVIGVGSLMVAKKVG,failed
6,MVQSSVRRKGARPRDRQTGEPGWDDSLYDDNGEPVQDGRGSGRGGGSAQGGGDGDGPPDEAKGHSRHGGGRRRGGKGDGGGGRPRRRRRVLRWSATVLAVLILGTAGAGYLYYQHLNDNIKKDDLYLGDDKDRAAKPKANAAGQTPLNILLIGSDARDSAANQKLGGAKDTYGGTPRADVQMLLHLSADRSNMSVVSMPRDTLLEIPKCTDPKTSHTYAAITYPTMTNNSLGRGGPGCTVATWEKFTDIHIDHFMMVDFAGVVSMADAIGGVPVCVDANIYSHTSTGHGSGLKLKDGTTSIKGKQALQWLRTRYGFEDGSDIGRTKAQHQYMNSMVRQLRENATLSNPNKLRKLAETATNALTVDDGLGTVSKLYDLSKELKKVPTSRITMTTMPWVYSSDGNRVLPKPNDAAKVFRLLREDIALDGKDKKKSPAQKAVAPAHADDKIAVQVQNGTRTSALAPVGGRANAMAQLLVGKGFTGAAADSSTVLSEDKTVIRYPSADLKGDAQRVAKSLGVPLSSVEKSASVSGVTLIVGGDWRSGTTYKAAEDDDTTPASAKLDKGSDTGACMHVDPDYTWS,failed
7,MVQTRSQDDSKDKGKEVEGANPLEERMLRLESMMDAHSKEMMKHMAEMTMVMSRSTAHKLREEHSSGERSLPRSSTSTDDRVGYQDHRRDQGQDQDHRRDQQQNQDHRRDNRLDQVRYEPQQQHYGNLTRLGKIDLPRFDGTGIKEWLFKVEEFFGIDFTPADLKVKMVAIHFDSHAATWHHSFMQSGVGLEVLYDWPGYVRLLK,failed
8,MVRDNGPGERLSIPPLSGLRKFRRTLSQKYDNHYCYLWMVSSALEYVRKFGIEKEPSRPFHAYAICPKDVPHRSPSIELSYISEVVWLNRIEDDLCYMNIRSLPVSPFSFSNIEKIGFQR,not failed
9,MVRLAEERDFPGFLGLAGQVEHWFGPMVEDAGFHEAVREHIRRGAALVAVAPDPDTDAGPGAGTGTELLGGLLFGTDTDADAPVHHVHWLVVSRQARAGGVGRALMRDAMRRWVREPAGVEVVTFGADHPGATESGARAFYERLGFTPAEVVAPGPEGGSRQLFRRGAQVRPTRGEHVTTYTGGPA,failed
10,MVRLTPFYKKLSILFVEDEREVQEAALNVLERYIDHILVASDGEEALAIFKEKRPDIVITDIKMPVMDGLALTKEIKELGDTPVIVISAFDNEEFVSEAARLGVETYLLKPIDIQLLLASINRCIELLIRREEARQNRSLLREYKRIVDETAMICKIDLDKTITYANEAFCQISGYSKEELTGKIYRHMVSPRQDLSRLDGGLWVNVLRGKSWKGMIELLNKKGEPYFIQASMFPLFDADGKITELIALQFDITEHIKTKQILEKQNQKLEHIAHTDTLTGVWNRYKFNKILRQEIKCAKSSNHPFSLMLLDVDRFKTINDTHGHQFGDRVLKAITSTLKRQLKHKEAMIARWGGEEFIVLAQGYRLAQALELAERLRAAIEGMEFENIPITSSFGVTEFSPEDELDTLVRRADLALYTAKESGRNRIISY,failed
11,MVRRLACKRAYRFRFYPTPEQEQLLRRTVGCCRKVYNLALEARSTAWTAERRSITYVQTSAMLTQWKQTAEYSYMNEVSCVPLQQALRHLQTAFSNFFKQTGDYPRFKAKSHGGSAEYTRSAFTWDAKRNELTLAKMRGPLPIRWSRTLPRKTEPSTVTVSLDAAGRWHVSILVEEAIRPLPARGDAVGIDLGVDSYAVTSDGETIANPRHYRKLAERLEREQRALSRKTKGGNNRRKAALKVARTYARITDMRRDFLHKLSTRIIRENQTVVLEDLNVRNMARRCAPKPDPDNPNHWLPNGQSAKNGLNGSIMDAGWSEFRRMLEYKAEWYGRKLITIDRYYPSTQICSHCGAKTGPKGMPGLTVRAWTCPDCGTTHDRDLNAAENILAAGLAVSVCKDGRTGTKVSH,failed
12,MVRVFNHWFSPRKAFYFFAEETVLVVALLAGASLGPVAAQATGAAAPIAPAVLRAGLASLFFAGALYLGDLYDLHAAVRDRADGRRLLRALGVATIALAIADLSLDLVLPGWMLHRSVVLAAAGGALGVIGARALMPAVVGAPTRVLFLGAGPRARDLARAVEREADGLWAVAGFVVPEGSRAPAVVPPEALRQGPVLDVVRQARAQVVVVAMEDRREGLPVDALLALRTRGLRVVDDVGFAEATLQRIPLALVRPSALIFDEGFRVSRLTRTVKRALDLGVSAVGLLLGAPVMAAVAAAIWLSDGRPLLYSQERTGRGGRPYRIWKFRTMRRDAEKLGAAWATDDDPRVLPVGRFLRRARLDELPQLWNVLGGHMSLVGPRPERAVFLSELKARWPLFALRELVKPGLTGWAQLRYGYGSTMEEQAKKLEYDLYYIKNTTLFLDLVCLLATAKVVLLGRGAR,failed
13,MVSLTKRCIAEFIGTFILVFFGAGSAAVTLMIASGGTSPNPFNIGIGLLGGLGDWVAIGLAFGFAIAASIYALGNISGCHINPAVTIGLWSVKKFPGREVVPYIIAQLLGAAFGSFIFLQCAGIGAATVGGLGATAPFPGISYWQAMLAEVVGTFLLMITIMGIAVDERAPKGFAGIIIGLTVAGIITTLGNISGSSLNPARTFGPYLNDMIFAGTDLWNYYSIYVIGPIVGAVLAALTYQYLTSE,not failed
14,MVSLTMVPIDALLSKEVNAFIVQHKHASVAELMLRMPVFTVDSRWIAAQIEGWQKASQKLPLWASTENIIYPIRLSMEQCSSERTAHYKSTLMSGERLVDLTGGFGVDSFYLSKSFNEVIYIEQQEDLAEIAAHNFSTLNQNNIVVKTADSDEYLKDIAEKIDVIFLDPARRKEMRKVYKLSDCEPNVVALQSFYFSKADVILIKTSPMLDITEATRQLTGIKEIHVVSVDNECKEVLYLLEKNYSGKATYICAHDYKKQLQLFSFTIAAEQAVTLSYSAPLAYLYEPNPSILKAGGFNSITQKYEVFKLHASSHLYTSASEVSDFPGRTFKIKETVGYSKKDIQAAVPGGKANIQTRNFPDSVEAIRKKTGLKDGGNIFIFATTLHDLSKVLLICEKI,failed
15,MVSMLTRIRRQIKRVIEPLAKTLAQLKVSANFITMLGLIFAIVYYFEIMRSNTTLGIIFLVFSALMDAIDGEVARVSKTVSPLGSFLDSTLDRIEDILYISAFIFLGFSSYLVAIAVGLSLTISYIRAKAESLGLKMEGRGIIERGERIIFVFVILLLYIIVSKQVSLYLFYLFMLLTAITVIQRFYAVYSLLRK,failed
16,MVSNQRVRLFMLCFCLVNNAVIAATEDENVERKPYIVYMGEATENSLVEAAENHHNLLMTVIGDESKARELKIYSYGKNINGFVARLFPHEAEKLSREEGVVSVFKNTQRQLHTTRSWDFLGLVESKYKRSVGIESNIIVGVLDTGIDVESPSFNDKGVGPPPAKWKGKCVTGNNFTRCNNKVIGAKYFHIQSEGLPDGEGDTAADHDGHGTHTSSTIAGVSVSSASLFGIANGTARGGVPSARIAAYKVCWDSGCTDMDMLAAFDEAISDGVDIISISIGGASLPFFEDPIAIGAFHAMKRGILTTCSAGNNGPGLFTVSNLAPWVMTVAANSLDRKFETVVKLGNGLTASGISLNGFNPRKKMYPLTSGSLASNLSAGGYGEPSTCEPGTLGEDKVMGKVVYCEAGREEGGNGGQGQDHVVRSLKGAGVIVQLLEPTDMATSTLIAGSYVFFEDGTKITEYINSTKNPQAVIFKTKTTKMLAPSISSFSARGPQRISPNILKPDISAPGLNILAAYSKLASVTGYPDDNRRTLFSIMSGTSMACPHAAAAAAYVKSFHPDWSPAAIKSALMTTATPMRIKGNEAELSYGSGQINPRRAIHPGLVYDITEDAYLRFLCKEGYNSTSIGLLTGDNSNNTTKKEYNCENIKRGLGSDGLNYPSLHKQVNSTEAKVSEVFYRTVTNVGYGPSTYVARVWAPKGLRVEVVPKVMSFERPKEKRNFKVVIDGVWDETMKGIVSASVEWDDSRGHLVRSPILLFRSDNDYR,failed
17,MVSPKKESKSMKILKNLALPIAMALGVLAWPILSPLSFLIPYMIFLMLFFTFLKISPRDMHFSRLHLLLALIQITLAIGGFFAFRLLDPIVAEGVMICFICPAATASSVIIGMLGGNIAFGATYVLLTHMGVAVLGPLLFSSLSTAHADMPFWSSVIHILWGVLPLVVVPLLAAWIIRFTSPRTHARLLRIPQMAFWLWVTSLAIIMAKTTGYVMAQGSDSIRLELLLALGGLLSCLLQFGLGKWLSKRYLKESITAGQALGQKNTSLAIWMSLTYLNPIASIAPASYVVWQNSLNSIQIWLYDKRKNKTDRQ,failed

# From a protein production outcome set (Wang et al. 2014)
